Assay results reported in patent publication US20100124555A1, “Compositions and Methods for Treating Pancreatic Tumors” (UNIVERSITE DE LA MEDITERRANEE, priority 2007, published 2010).

Experiments:
[1] = tested on: SOJ-6 cells; assay: Apoptosis by caspase activity (CaspACE FITC-VAD-fmk in situ marker); format: cell-based, human
Procedure: Cells grown in 8-well plates (Polystyrene vessel, BD Falcon) were treated with mAb16D10 or mouse IgM in RPMI with inactivated FCS for 24 hours prior to the addition of CaspACE FITC-VAD-fmk in situ marker (Promega) at a final concentration of 10 μM in the culture medium according to manufacturer's instructions. Then cells were washed in PBS, fixed for 15 minutes in 2% paraformaldehyde, and washed once again. Upon caspase action on FITC-VAD-fmk, apoptotic cells become fluorescent and the number of fluorescent cells was determined in triplicate on collections of 10 fields randomly examined under the fluorescent microscope.

[2] = tested on: SOJ-6 cells; assay: Nuclear staining with DAPI (nuclear fragmentation); format: cell-based, human; conditions: RPMI induced no apoptosis
Procedure: After treatment with mAb16D10 or cisplatin, cells were washed in ice-cold PBS, fixed and permeablized with 70% ethanol for 5 min at […] and staining with diluted 1/1000 DAPI solution in PBS for 1 min at room temperature. The cells were then washed with PBS. The nuclear morphology of cells was examined by fluorescence microscopy.

[3] = tested on: Bcl-2, Bax, caspases 8 and 9, PARP in SOJ-6 cells; assay: SDS-PAGE and western blot of apoptosis proteins; format: cell-based, human; conditions: SOJ-6 cells, 24 h
Procedure: (§1) SOJ-6 cells were grown in 6-well culture plates in RPMI 1640 medium with 10% FCS. At subconfluency, the medium was removed and replaced for 24 hours by fresh RPMI medium with 10% inactivated FCS. SOJ-6 cells were then incubated with mAb16D10 or Cisplatin for 24 hours. At the end of incubation, cells were washed three times with ice-cold PBS (without […] and Mg^++) harvested and pelleted by centrifugation. Pellets were washed twice and lysed at 4° C. in 0.5 ml of lysis buffer (10 mM Tris-HCl pH 7.4, 150 mM NaCl, 1% Triton X-100, 1 mM benzamidine and phosphatase inhibitors). After lysis, homogenates were clarified by centrifugation at 10,000 g for 10 min at 4° C. An aliquot was saved for protein determination using the bicinchoninic acid assay (Pierce, Rockford, Ill.). Proteins (50 μg/lane) in reducing SDS buffer were separated onto 10, 12, or 15% polyacrylamide with 0.1% SDS (according to the molecular weight range of proteins to be separated). After electrophoretic migration, proteins were silver stained. Alternatively, proteins were transferred onto nitrocellulose membranes using a Mini Transblot electrophoretic cell (BioRad, Hercule, Oreg.), and transferred proteins were immunodetected by using appropriate primary and secondary antibodies. After washes, membranes were developed with a chemoluminescent substrate according to the manufacturer's instructions (Roche Diagnostics, Switzerland). In each experiment, a control was included by omitting primary antibodies or by using a non-immune serum.

[4] = tested on: SOJ-6 cells; assay: MTT cell growth and proliferation assay, SOJ-6; format: cell-based, human; conditions: SOJ-6, increasing concentrations of antibody, 24 h
Procedure: (§2) Cell proliferation was determined using MTT assay as previously described (Mosmann et al., 1983 J Immunol Methods, 65(1-2):55-63). Briefly, cells were seeded at subconfluence in appropriate complete media containing 10% FCS in 96-well culture plates. Media were replaced for 24 h by fresh media with 10% inactivated FCS, including increasing concentrations of antibodies directed against FAPP (pAbL64, mAbJ28 and mAb16D10). Cells were washed with PBS and incubated with 100 μl of MTT (0.5 mg/ml) in complete media for 3 h, washed with PBS and finally incubated with DMSO for 30 min at 37° C. Cell growth was determined by measuring absorbance at 550 nm using a MR 5000 microplate spectrophotometer. All independent determinations were done in triplicate and compared to control.

[5] = tested on: PANC-1 cells; assay: MTT cell growth and proliferation assay, PANC-1; format: cell-based, human; conditions: PANC-1, increasing concentrations of antibody, 24 h
Procedure: as §2

[6] = tested on: PANC-1 cells; assay: Cell-cycle distribution by propidium iodide flow cytometry, PANC-1; format: cell-based, human
[7] = tested on: p53, cyclin D1, GSK-3β in SOJ-6 cells; assay: Western blot of cell cycle regulatory proteins; format: cell-based, human
Procedure: as §1
The expression of different cell cycle regulatory proteins, specifically p53 and cyclin D1, was next analyzed. […] Since cyclin D1 expression may be directly regulated by GSK-3β (Diehl et al., 1998 Genes Dev. 12(22):3499-511), we next focused on the expression level of this kinase in SOJ-6 cells once challenged with mAb16D10.

[8] = tested on: living cells in culture; assay: Pulse-chase confocal microscopy internalization; format: cell-based; conditions: pulse 30 min at 4° C.; chase 2 h at 37° C.
Procedure: A pulse-chase experiment using confocal microscopy was used to assess the interaction of the IgM 16D10 antibody with living cells in culture. (Pulse: 30 min at 4° C.; Chase: 0 or 2 h at 37° C. in culture medium.) It was observed that virtually all of the mAb was internalized within 2 h. A fraction of the mAbs co-localized with LAMP1.

[9] = tested on: SOJ-6 cells; assay: Effect of antibodies on SOJ-6 cell proliferation (Example 11); format: cell-based, human
Procedure: The effects of the IgM antibody 16D10 and the chimeric antibody rec16D10 on the proliferation of SOJ-6 cells were examined. Cells were incubated in culture with no antibodies, with various amounts of 16D10 or rec16D10 antibodies, or with an irrelevant IgG antibody. Antibody 16D10 reduced cell proliferation by approximately 50% at either 25 or 50 μg/ml, while rec16D10 reduced proliferation by more than 20% and more than 35% at 25 and 50 μg/ml, respectively (FIG. 18).

B1: 16D10: IgM monoclonal antibody recognizing FAPP/BSDL; producing cells deposited with the CNCM under the number I-3188 (antibody, listed as Mus musculus, V domains shown)
VH: QVQLQQSDAELVKPGASVKISCKASGYTFTDHAIHWVKQKPEQGLEWIGYISPGNDVIKFNEKFKGKATLTADKSSSTAYMQLNSLTSEDSAVYFCKRSEGGVFDYWGQGTTLTVS
VL: NIMMTQSPSSLAVSAGEKVTMSCKSSQSVLYSSNQKNFLAWYQQKPGQSPKLLIYWASTRESGVPDRFTGSGSGTDFTLTISSVQAEDLAVYYCHQYLSSYTFGGGTKLEIK
- apoptotic cellular death of SOJ-6 cells (number of apoptotic cells/cm2) ([1]; 24 h, compared to RPMI and mouse IgM): leads to the apoptosis of SOJ-6 cells
- apoptosis by caspase activity (number of apoptotic cells compared to control) ([1]; SOJ-6, 24 hours, 16D10 25 μg/ml, recombinant chimeric 16D10 5 μg/ml): clearly enhanced
- caspases through which apoptosis is stimulated ([1]; cells pre-treated with or without caspase inhibitors): stimulates apoptosis through the caspase-3, caspase-8, and caspase-9
- apoptosis observed by DAPI staining (nuclear fragmentation) [2]: significant levels of apoptosis
- Bax protein level [3]: increase of Bax protein
- anti-apoptotic protein Bcl-2 level [3]: decrease of the anti-apoptotic protein Bcl-2
- mediators of induced apoptosis (caspases, PARP cleavage) [3]: mediated via caspases 8 and 9, and poly-ADP ribose polymerase (PARP) cleavage
- % growth of cells [4]: does cause a decrease in SOJ-6 cells
- % growth of cells [5]: unable to cause a decrease in growth or number of PANC-1 cells
- effect on the cell cycle [6]: no effect on the cell cycle was observed
- expression of cyclin D1 [7]: decreased that of cyclin D1
- expression of p53 [7]: increased the expression of p53
- expression of total GSK-3β [7]: constant
- phospho-GSK-3β (inactive form) [7]: a decrease in the phospho-GSK-3β
- fraction of mAb internalized [8]: virtually all
- reduction of SOJ-6 cell proliferation ([9]; 25 μg/ml): approximately 50%
- reduction of SOJ-6 cell proliferation ([9]; 50 μg/ml): approximately 50%
